The series concerns the molecule itself. Kind of series: affinity purification with mass spectrometry; anti-apo A-II monoclonal antibody covalently bound on a PS-20 protein chip; plasma diluted 1:2 in TBS pH 7.4 or purified HDL, 2 h at room temperature; washes 4 x TBS, TBS-Tween 0.005 %, 5 mM Hepes; SELDI-TOF MS of captured native HDL.

B1: apolipoprotein A-II (natural protein)
chain: not shown
notes: apolipoprotein A-II of human plasma HDL; dimer at about 17.4 kDa (17099, 17221 and 17352 m/z); Three dimer species were seen: the full dimer and dimers lacking one or two terminal (probably C-terminal) glutamine residues; The dimer is probably the disulfide-linked one (my surmise); Present on native HDL particles; also called apo A-II; source: endogenous, human plasma (HDL particles captured …)
For orientation: stoichiometry N means a count of units in the complex or per binding partner. For B1, the “stoichiometry N” value came to 2.
